From patent publication US11541126B1, “Anti-ASGR1 antibody TLR8 agonist comprising conjugates and uses thereof” (Silverback Therapeutics, Inc., priority 2020, dated 2023) come the findings set out here.

The labels stand for the following.
B1: hzG2D-30: humanized G2D clone; "G2D VL region ... of clones 22, 23, 30, 32, and 34-37 ... grafted into the human germline sequence VKI-O2 with JK4" (antibody, V domains shown)
VH: QVQLVQSGAEVKKPGASVKVSCKASGYTFTGYYMHWVKQAPGQRLEWMGRINPNNGATNYNQNFKDKASLTVDTSASTAYMELSSLRSEDTAVYYCTSVNFYYWGQGTTVTVSS
VL: DIQMTQSPSSLSASVGDRVTITCKASQVINSYLSWYQQKPGKAPKLLIYRANTLVDGVPSRFSGSGSGTDFTLTISSLQPEDFATYYCLQYAEFPYTFGGGTKVEIK
modifications: Synthetic sequence hzG2.49D VH R38K, R66K, V67A, T68S, I69L, R71V, A93T, R94S; Synthetic sequence hzG2D VLb
B2: hzG2D-32: humanized G2D clone; "G2D VL region ... of clones 22, 23, 30, 32, and 34-37 ... grafted into the human germline sequence VKI-O2 with JK4" (antibody, V domains shown)
VH: QVQLVQSGAEVKKPGASVKVSCKASGYTFTGYYMHWVRQAPGQRLEWMGRINPNNGATNYNQNFKDKASLTVDTSASTAYMEFHSLRSEDTAVYYCTSVNFYYWGQGTTVTVSS
VL: DIQMTQSPSSLSASVGDRVTITCKASQVINSYLSWYQQKPGKAPKLLIYRANTLVDGVPSRFSGSGSGTDFTLTISSLQPEDFATYYCLQYAEFPYTFGGGTKVEIK
modifications: Synthetic sequence hzG2.50D VH R66K, V67A, T68S, I69L, R71V, L82F, S82aH, A93T, R94S; Synthetic sequence hzG2D VLb
B3: hzG2D-1: humanized G2D clone; "G2D VL region ... of clones 1-16, 19-21, 26-29, 31, and 33 ... grafted into the human germline sequence VKI-L1 with JK4" (antibody, V domains shown)
VH: QVQLVQSGAEVKKPGASVKVSCKASGYTFTGYYMHWVRQAPGQRLEWMGRINPNNGATNYNQNFKDRVTITRDTSASTAYMELSSLRSEDTAVYYCARVNFYYWGQGTTLTVSS
VL: DIQMTQSPSSLSASVGDRVTITCKASQVINSYLSWFQQKPGKAPKSLIYRANTLVDGVPSRFSGSGSGTDFTLTISSLQPEDFATYYCLQYAEFPYTFGGGTKVEIK
modifications: Synthetic sequence hzG2D VH V109L; Synthetic sequence hzG2D VLa
B4: hzG2D-31: humanized G2D clone; "G2D VL region ... of clones 1-16, 19-21, 26-29, 31, and 33 ... grafted into the human germline sequence VKI-L1 with JK4" (antibody, V domains shown)
VH: QVQLVQSGAEVKKPGASVKVSCKASGYTFTGYYMHWVRQAPGQRLEWMGRINPNNGATNYNQNFKDKASLTVDTSASTAYMEFHSLRSEDTAVYYCTSVNFYYWGQGTTVTVSS
VL: DIQMTQSPSSLSASVGDRVTITCKASQVINSYLSWFQQKPGKAPKSLIYRANTLVDGVPSRFSGSGSGTDFTLTISSLQPEDFATYYCLQYAEFPYTFGGGTKVEIK
modifications: Synthetic sequence hzG2.50D VH R66K, V67A, T68S, I69L, R71V, L82F, S82aH, A93T, R94S; Synthetic sequence hzG2D VLa

For the test, the target named is T1, HepG2 cells (which express ASGR1) (Homo sapiens, UniProt P07306).
T1 construct: endogenous in cells; host or cells: HepG2
T1 sequence (P07306 1-291): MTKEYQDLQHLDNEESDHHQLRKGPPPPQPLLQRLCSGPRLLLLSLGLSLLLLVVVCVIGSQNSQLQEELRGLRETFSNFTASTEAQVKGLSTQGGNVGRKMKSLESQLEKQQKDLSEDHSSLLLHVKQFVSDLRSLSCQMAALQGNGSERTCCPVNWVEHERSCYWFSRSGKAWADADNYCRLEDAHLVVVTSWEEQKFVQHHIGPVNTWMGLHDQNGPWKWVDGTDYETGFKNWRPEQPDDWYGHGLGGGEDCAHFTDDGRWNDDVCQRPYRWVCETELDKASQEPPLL
Nature of the test: Guava HepG2 cell binding screen of humanized anti-ASGR1 clones. Set-up: unit not given here. As to conditions: humanized G2D clones (Table 5); two numbers per cell, not explained. As for the experimental part:
Hybridomas producing monoclonal antibodies (mAbs) specific for human ASGR1 were prepared from Balb/C mice immunized with ASGR1-AviHis at a service provider using their propriety protocol. Antibody heavy and light chain sequences were obtained, amplified, and cloned. Clone supernatants containing the expressed mAbs were screened for binding to a human ASGR1-IgG1Fc fusion protein, and those with a positive signal as measured by enzyme linked immunosorbent assay (ELISA) were screened for cell binding on HepG2 cells (which express ASGR1).
Turning to B1, the “Guava HepG2 Screen” value is 198/115. As to B2, the “Guava HepG2 Screen” value was 167/103.

As for B3, the “Guava HepG2 Screen” value is recorded as 32/19. As for B4, the figure is 168/95.
